B1: CSPαJ: J-domain (residues 1–100) of human CSPα (protein, UniProt Q9H3Z4 1-100, looked up, fragment)
chain: MADQRQRSLSTSGESLYHVLGLDKNATSDDIKKSYRKLALKYHPDKNPDNPEAADKFKEINNAHAILTDATKRNIYDKYGSLGLYVAEQFGEENVNTYFV
modifications: J-domain
notes: J-domain (residues 1–100) of human CSPα
B2: Apg2: nucleotide exchange factor, member of the Hsp110 family (protein, UniProt P34932 1-840, looked up)
Heat shock 70 kDa protein 4: MSVVGIDLGFQSCYVAVARAGGIETIANEYSDRCTPACISFGPKNRSIGAAAKSQVISNAKNTVQGFKRFHGRAFSDPFVEAEKSNLAYDIVQLPTGLTGIKVTYMEEERNFTTEQVTAMLLSKLKETAESVLKKPVVDCVVSVPCFYTDAERRSVMDATQIAGLNCLRLMNETTAVALAYGIYKQDLPALEEKPRNVVFVDMGHSAYQVSVCAFNRGKLKVLATAFDTTLGGRKFDEVLVNHFCEEFGKKYKLDIKSKIRALLRLSQECEKLKKLMSANASDLPLSIECFMNDVDVSGTMNRGKFLEMCNDLLARVEPPLRSVLEQTKLKKEDIYAVEIVGGATRIPAVKEKISKFFGKELSTTLNADEAVTRGCALQCAILSPAFKVREFSITDVVPYPISLRWNSPAEEGSSDCEVFSKNHAAPFSKVLTFYRKEPFTLEAYYSSPQDLPYPDPAIAQFSVQKVTPQSDGSSSKVKVKVRVNVHGIFSVSSASLVEVHKSEENEEPMETDQNAKEEEKMQVDQEEPHVEEQQQQTPAENKAESEEMETSQAGSKDKKMDQPPQAKKAKVKTSTVDLPIENQLLWQIDREMLNLYIENEGKMIMQDKLEKERNDAKNAVEEYVYEMRDKLSGEYEKFVSEDDRNSFTLKLEDTENWLYEDGEDQPKQVYVDKLAELKNLGQPIKIRFQESEERPKLFEELGKQIQQYMKIISSFKNKEDQYDHLDAADMTKVEKSTNEAMEWMNNKLNLQNKQSLTMDPVVKSKEIEAKIKELTSTCSPIISKPKPKVEPPKEEQKNAEQNGPVDGQGDNPGPQAAEQGTDTAVPSDSDKKLPEMDID

How the values were obtained:
[1] = SNAP-25 aggregation kinetics by optical density; assay type: biochemical; conditions: without SNAP-25, 37 °C
Method: (§1) To test our hypothesis that Hsc70 inhibits SNAP-25 aggregation, we monitored the aggregation kinetics of recombinantly expressed SNAP-25 in the absence and presence of Hsc70 by following optical density at 360 nm (Fig. 2). […] This lag time was elongated to ∼65 h in the presence of Hsc70. In neurons, Hsc70 works in collaboration with its co-chaperone CSPα. […] (Fig. S2A). Apg2 is a member of the Hsp110 family, which is known to suppress protein aggregation ([36]). […] (Fig. S2B).
(§2) Figure 2 Hsc70 delays the aggregation of SNAP-25. Aggregation kinetics of SNAP-25 (50 μM) at 37 °C. Optical density of SNAP-25 was recorded at 360 nm in the absence (black) and in the presence of Hsc70 (5 μM, red), and Hsc70+CSPαJ (5 μM each, blue).
(§3) Aggregation of SNAP-25 at 50 μM was followed by measuring the A360 in a 96-well plate using a BioTek plate reader (BioTek), at 37 °C with shaking at 300 rpm, in the absence and presence of Hsc70 and CSPαJ at 5 μM each, and Apg2 at 0.5 μM. The aggregation buffer included 20 mM phosphate buffer pH 7.4, 100 μM MgCl2, and 100 mM KCl, and an ATP-experiment was carried out using regeneration system (5 mM 2-phosphoenolpyruvate, 0.05 mg/ml pyruvate kinase, and 5 mM ATP), as described previously ([51]).
(§4) Figure SI 2. Apg2 enhances the effect of Hsc70 on SNAP-25. (A) Aggregation kinetics of SNAP-25 (50 μM) at 37 °C. OD600 of SNAP-25 was recorded in the absence (black) and in the presence of Hsc70, Hsc70+CSPa-J (blue) and Hsc70+CSPa-J+Apg2 (turquoise). […]
(§5) concentrations are SNAP-25 (50 μM), Hsc70 (5 μM), CSPa-J (5 μM) and Apg2 (0.5 μM).
(§6) (B) Aggregation kinetics of SNAP-25 (50 μM) at 37 °C. OD600 of SNAP-25 was recorded in the absence (black) and in the presence of Apg2 (blue). […]

[2] = system: SNAP-25; assay: SNAP-25 aggregation kinetics by optical density; assay type: biochemical; conditions: SNAP-25 50 μM
Method: as §1, §2, §3, §4, §5, §6

[3] = target: T1, Hsc70 (Homo sapiens, UniProt P11142); assay: SNAP-25 cellulose-bound peptide array probed with Hsc70; assay type: binding; conditions: Hsc70 with CSPαJ vs Hsc70 alone
T1 construct: 6X His-tag (TEV-cleavable) (cleaved yes); made in house; host or cells: E. coli Rosetta (DE3)
T1 sequence (P11142 whole entry): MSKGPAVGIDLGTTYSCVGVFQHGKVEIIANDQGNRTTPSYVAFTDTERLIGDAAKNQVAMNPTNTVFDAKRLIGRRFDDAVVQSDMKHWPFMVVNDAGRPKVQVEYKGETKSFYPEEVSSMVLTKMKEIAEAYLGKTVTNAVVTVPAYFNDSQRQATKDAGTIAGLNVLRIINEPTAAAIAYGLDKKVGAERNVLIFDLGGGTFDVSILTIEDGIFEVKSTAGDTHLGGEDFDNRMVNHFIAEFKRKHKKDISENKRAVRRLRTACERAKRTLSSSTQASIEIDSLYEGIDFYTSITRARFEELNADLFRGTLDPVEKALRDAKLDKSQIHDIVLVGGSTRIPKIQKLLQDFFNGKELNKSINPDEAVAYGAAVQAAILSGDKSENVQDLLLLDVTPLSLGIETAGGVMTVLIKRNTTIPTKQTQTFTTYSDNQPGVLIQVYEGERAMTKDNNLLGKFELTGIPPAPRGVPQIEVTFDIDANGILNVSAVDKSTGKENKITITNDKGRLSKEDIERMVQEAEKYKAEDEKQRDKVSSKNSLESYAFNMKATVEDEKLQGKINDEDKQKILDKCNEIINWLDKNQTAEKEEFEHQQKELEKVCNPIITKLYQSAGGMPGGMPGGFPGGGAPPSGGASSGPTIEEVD
Text: To explore in greater depth the binding sites for Hsc70 in SNAP-25, we screened a cellulose-bound peptide array spanning the full SNAP-25 sequence with 13-residue long peptides, overlapping by ten residues, and probed with Hsc70 in the presence of a two-fold excess of ATP and ten-fold excess of ADP. The binding of Hsc70 to sites in the array was then visualized with an anti-Hsc70 primary antibody and a horse radish peroxidase-tagged secondary antibody to enable visualization by chemiluminescence (Fig. 4A). To quantitatively analyze the array, we used ImageJ (https://imagej.net/ij/) and plotted the intensity under the area for each spot. […] One site is located in the SNN, one in the LOOP, and one in the LOOP-SNC region (called SNC site) (Fig. 4A) […] (Fig. 1C). […] The binding site in the LOOP region is very close to the cysteine residues that become palmitoylated as SNAP-25 moves to its membrane-localized state. It is formally possible that Hsc70 binds to SNAP-25 in the initial un-palmitoylated state and dissociates upon palmitoylation and association with the plasma membrane. […]
B, quantification of the spots from Figure 4A using ImageJ (Hsc70 (gray) and Hsc70-CSPαJ (dark gray)). […]
A peptide array of SNAP-25 was obtained from CEM corporation. […] The chemiluminescence was captured in a G-box (Syngene), and the images were analyzed using ImageJ.

[4] = target: T1, Hsc70; assay: ATPase activity of Hsc70 (malachite green); assay type: biochemical; conditions: for ATPase activity of co-chaperone alone: baseline, protein alone without Hsc70
Text: Hsp70s consist of an nucleotide-binding domain (NBD) and a substrate-binding domain (SBD). Hsc70 works using an allosteric mechanism whereby substrate binding at the SBD stimulates the ATP hydrolysis rate at the nucleotide-binding domain. The basal ATPase rate of Hsp70 is low, usually about 0.05 ± 0.009 mol Pi/mol protein, and increases when it is stimulated by binding of a peptide to the canonical site in the SBD. We measured the ability of SNAP-25 peptides SNNP and SNCP to stimulate the ATPase rate of Hsc70 (Fig. 5A). SNNP and SNCP binding cause a 1.5-fold increase of the Hsc70 ATPase rate over basal (observed rates upon addition of SNNP and SNCP were 0.089 ± 0.008 and 0.080 ± 0.005, respectively). In order to confirm that peptides are indeed binding at the canonical binding site of Hsc70, we used the V438F mutant that blocks the binding site ([37]). […] The addition of CSPαJ stimulates the ATPase activity of Hsc70 ∼4-fold with and without peptides.
Figure 5 SNN and SNC peptides interact with the canonical substrate-binding site of Hsc70.A, ATPase activity of Hsc70 (2 μM) in the absence (gray) and presence of 200 μM SNNP (orange) and SNCP (green) peptides. Error bars represent the SDs from three independent experiments. B, binding of SNAP-25 (black), SNNP (orange), LoopP (blue), and SNCP (green) peptides to Hsc70 followed by competition for FITC-p5 peptide using fluorescence anisotropy. Increasing concentrations of the competitors were added to a complex of Hsc70 (5 μM) and FITC-p5 peptide (50 nM). Error bars represent SDs from three independent experiments. C, structure of the canonical substrate-binding site of human HspA1 (PDB 4po2) illustrating the location of Hsc70 residues Ile 403 and Ile 440 in red and green spheres, respectively (N.B., Hsc70 and HspA1 share […] sequence identity). The SBD is shown in gray, bound substrate in cyan sticks, and the side chain of the residue occupying the 0th position in the chaperone (“anchor residue”) in orange ball and sticks. For better visualization of the substrate-binding site, residues 512 to 613, 405 to 408, and 431 were removed in this illustration of the structure. […]
We performed ATPase assays to observe the activity of Hsc70 in the presence of SNAP25 peptides. […] Absorbance readings were taken at 620 nm using a BioTek plate reader. […]
(C) ATPase activity of Hsc70 (at 2 μM) in the absence (grey) and presence of 200 μM SNNP (orange) and L(Loop)-SNCP (green) peptides, and in the absence and presence of CSPa-J and CSPa-J/Apg2. The statistical significance was calculated using one-way ANOVA test with Sidak’s multiple comparison and the Hsc70 ATPase activity […]

[5] = OD600 (Fig. S2A), Hsc70 5 μM, CSPa-J 5 μM, Apg2 0.5 μM

Molecule	aggregation of the chaperone alone ([1]; OD 360 nm (Fig. 2))	aggregation of the chaperone alone [1, 5]	effect of CSPαJ on lag time of SNAP-25 aggregation with Hsc70 ([2]; Hsc70 and CSPαJ 5 μM each, 37 °C, OD 360 nm)	effect of CSPαJ on specificity of Hsc70 binding to SNAP-25 array [3]	stimulation of Hsc70 ATPase activity by CSPαJ ([4]; Hsc70 2 μM, with and without peptides) [fold]	ATPase activity of co-chaperone alone [4]	effect of Apg2 alone on SNAP-25 aggregation ([2]; Apg2 without Hsc70/CSPαJ, 37 °C (Fig. S2B))	effect of Apg2 on SNAP-25 aggregation kinetics with Hsc70-CSPαJ ([2]; Hsc70 5 μM, CSPαJ 5 μM, Apg2 0.5 μM, 37 °C (Fig. S2A))	effect of Apg2 on Hsc70 ATPase activity ([4]; Hsc70 2 μM with CSPαJ, with Apg2 (Fig. S2C))
B1	no aggregation	exhibit no aggregation	elongates the lag time of SNAP-25 aggregation	does not change the specificity of Hsc70 binding to SNAP-25	~4	no ATPase activity			
B2		exhibit no aggregation				no ATPase activity	no significant effect	further elongated	not further increased
